Test results published in patent publication US20130052128A1 (University of California, published 2013).
Residue numbers refer to the chain shown, from its start. Blank lines part the entries; values can stand above or below the binder they belong to.

What was measured:
[1] = target: T1, Membrane-bound human uPAR on cells (human, UniProt Q03405 23-305); test: in vivo imaging, 2 nmol labelled IgG, 48 hours after injection
T1 construct: whole, on cells; Also used for endogenous uPAR in H1299 lysates (co-immunoprecipitation) and in tumor xenografts and sections; also called cell surface uPAR; CD87
T1 sequence (Q03405 23-305): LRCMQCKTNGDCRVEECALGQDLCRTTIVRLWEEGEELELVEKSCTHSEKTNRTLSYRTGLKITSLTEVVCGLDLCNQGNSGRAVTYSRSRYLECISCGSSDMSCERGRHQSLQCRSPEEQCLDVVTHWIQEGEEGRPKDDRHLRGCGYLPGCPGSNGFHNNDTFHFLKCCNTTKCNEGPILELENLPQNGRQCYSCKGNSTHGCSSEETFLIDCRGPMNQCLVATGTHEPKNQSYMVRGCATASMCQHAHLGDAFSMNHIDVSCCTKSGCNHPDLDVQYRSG

[2] = target: T2, Human soluble uPAR (residues 1-277) (human, UniProt Q03405 23-299); test: equilibrium SPR (Biacore 1000), IgG immobilized on a CM5 chip, soluble uPAR as analyte, one site binding model
T2 construct: also called soluble human uPAR
T2 sequence (Q03405 23-299): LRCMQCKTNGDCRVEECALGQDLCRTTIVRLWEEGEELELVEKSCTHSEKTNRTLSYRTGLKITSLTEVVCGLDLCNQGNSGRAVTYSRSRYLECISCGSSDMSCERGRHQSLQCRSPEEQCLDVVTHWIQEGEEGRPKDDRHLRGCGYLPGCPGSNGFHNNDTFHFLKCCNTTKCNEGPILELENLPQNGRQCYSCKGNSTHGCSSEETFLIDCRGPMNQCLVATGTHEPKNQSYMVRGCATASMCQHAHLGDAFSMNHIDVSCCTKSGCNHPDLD

[3] = target: T2, Human soluble uPAR (residues 1-277); test: equilibrium SPR (Biacore), IgG immobilized, soluble uPAR as analyte (FIG. 4)

- binding result [1]: binds
B1: 3C6 IgG (antibody, V domains shown)
VH: QVQLQQWGAGLLKPSETLSLTCAVYGGSFSGYYWSWIRQPPGKGLEWIGEINHSGSTNYNPSLKSRVTISVDTSKNQFSLKLSSVTAADTAVYYCARGRRFGDFDYWGQGTLVTVSS
VL: QPVLTQPPSVSVAPGKTARITCGGNNIGSKSVHWYQQKPGQAPVLVVYDDSDRPPGIPERFSGSNSGNTATLTISRVEAGDEADYYCQVWDSSSDHSPFGTGTKVTVLG
notes: not shown: IgG constant region; the making of 3C6 IgG is not described

- Kd [3]: ~40.5 nM
- Kd [2]: 40.5 nM
B3: 2G10 IgG (antibody, V domains shown)
VH: QVQLQQSGPGLVKPSQTLSLTCAISGDSVSSNSAAWNWIRQSPSRGLEWLGRTYYRSKWYNDYAVSVKSRIIINPDTSKNQFSLQLNSVTPEDTAVYYCARDPGGPLDDSFDIWGQGTMVTVSS
VL: DVVMTQSPLSLPVTPGEPASISCRSSQSLLRSNGYNYLDWYLQKPGQSPQLLIYLGSIRASGVPDRFSGSGSGTDFTLRISRVEAEDVGVYYCMQALQTPFTFGQGTKLEIKR
modifications: Alexa Fluor 680 (about 15 dyes per IgG) or DOTA-111In in the imaging experiments. It is unlabelled in SPR and flow cytometry.
notes: Used with an Alexa Fluor 680 or 111In-DOTA label in the in vivo imaging; also called 2G10 IgG1; DOTA-2G10 IgG

Second part, the binder before the results:

B2: 1A8 IgG (antibody, V domains shown)
VH: B3 VH with I72T, A100T, P106A
VL: DVVMTQSPASLSVSVGDRVTLTCQASQVINNHLNWYQQQPGKAPKLLVYDASNLETGVPSRFSGSGSGTDFTFTISGLQPEDIATYYCQQSDNLPLTFGGGTKLEIKR
notes: also called 1A8 IgG1; not shown: human IgG1 constant region of vector pTT5-SP-H1
- Kd [2]: 23.8 nM

B4: 2E9 IgG (antibody, V domains shown)
VH: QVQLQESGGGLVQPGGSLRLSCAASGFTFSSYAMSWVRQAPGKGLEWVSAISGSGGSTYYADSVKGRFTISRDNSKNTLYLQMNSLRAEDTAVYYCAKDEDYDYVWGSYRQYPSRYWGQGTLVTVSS
VL: QSVLTQPPSVSVSPGQTASITCSGDNLGYKYASWYQQKPGQSPVLIIYQDKKRPSGIPERFSGSNSGNTATLTISGTQAMDEADYYCQAWDSSTSVVFGGGTKLTVLG
notes: also called 2E9 IgG1; not shown: human IgG1 constant region of vector pTT5-SP-H1
- Kd [2]: 9.2 nM
